Laboratory results published in patent US7202212 (BETH ISRAEL DEACONESS MEDICAL CENTER, dated 2007).

Biological target: T1, mouse α7 subunit of the 20S proteasome, full length (mouse, UniProt O70435 1-255)
T1 construct: also called a7; full length a7 construct
T1 sequence (looked up): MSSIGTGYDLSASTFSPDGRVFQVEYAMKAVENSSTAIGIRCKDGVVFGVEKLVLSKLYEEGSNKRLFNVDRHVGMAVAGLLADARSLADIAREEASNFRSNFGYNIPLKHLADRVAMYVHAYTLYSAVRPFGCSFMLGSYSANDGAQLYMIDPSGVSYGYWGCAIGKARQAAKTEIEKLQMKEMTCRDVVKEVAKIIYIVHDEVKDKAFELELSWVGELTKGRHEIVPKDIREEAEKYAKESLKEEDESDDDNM
Assay: yeast two-hybrid screen of a mouse cDNA library with PR-39 exon 4 as bait
Protocol: To identify possible intracellular targets of PR-39 peptide action, a yeast two-hybrid screen of mouse cDNA library was performed using the unique 4th exon DNA sequence of porcine PR-39 gene as "bait". […] All four clones encoded overlapping identical cDNA sequences which are highly homologous to the sequence of the human α7 (HC8) subunit of the 20S proteasome (GeneBank accession AF055983).

B1: porcine PR-39 peptide (4th exon, amino acids 131 to 169) in pAS2-1 vector as yeast two-hybrid bait (peptide, not shown: large carriers)
chain: RRRPRPPYLPRPRPPPFFPPRLPPRIPPGFPPRFPPRFP
notes: Bait of the yeast two-hybrid assay; The 39 residues are amino acids 131 to 169 of the porcine precursor; also called PR-39 construct
- binding result: binds
